Measurements taken from patent US7166454.

Target: T1, peptide substrate KSEVNLDAEFRK derived from the sequence of Swedish amyloid precursor protein
T1 chain: KSEVNLDAEFRK

B1: β-secretase refolded from E. coli overexpression (protein)
chain: TQHGIRLPLRSGLGGAPLGLRLPRETDEEPEEPGRRGSFVEMVDNLRGKSGQGYYVEMTVGSPPQTLNILVDTGSSNFAVGAAPHPFLHRYYQRQLSSTYRDLRKGVYVPYTQGKWEGELGTDLVSIPHGPNVTVRANIAAITESDKFFINGSNWEGILGLAYAEIARPDDSLEPFFDSLVKQTHVPNLFSLQLCGAGFPLNQSEVLASVGGSMIIGGIDHSLYTGSLWYTPIRREWYYEVIIVRVEINGQDLKMDCKEYNYDKSIVDSGTTNLRLPKKVFEAAVKSIKAASSTEKFPDGFWLGEQLVCWQAGTTPWNIFPVISLYLMGEVTNQSFRITILPQQYLRPVEDVATSQDDCYKFAISQSSTGTVMGAVIMEGFYVVFDRARKRIGFAVSACHVHDEFRTAAVEGPFVTLDMEDCGYNIPQTDEST
specificity constant (Kcat/Km): 1800 ± 100 M⁻¹ s⁻¹
